Experimental findings from patent publication US20110118131A1 (published 2011) are described below.

The experiment has as its target T1, Ep-CAM (UniProt P16422 24-265, limits assumed).
T1 construct: Antigen of the Biacore analysis of ING-1 variants
T1 sequence (looked up): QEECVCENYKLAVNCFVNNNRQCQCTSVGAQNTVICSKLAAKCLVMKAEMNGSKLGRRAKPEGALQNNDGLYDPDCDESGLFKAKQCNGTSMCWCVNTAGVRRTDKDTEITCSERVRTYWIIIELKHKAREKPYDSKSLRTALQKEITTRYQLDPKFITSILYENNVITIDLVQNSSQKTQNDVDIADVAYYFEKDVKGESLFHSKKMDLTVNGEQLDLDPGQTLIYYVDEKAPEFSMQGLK
Description: Biacore, Fab periplasmic extract. Background: Surface plasmon resonance follows binding to a sensor surface in real time, without labels.

B1: ING-1 heavy chain D104F (Fab, V domains shown)
VH: QIQLVQSGPELKKPGETVKISCKASGYTFTKYGMNWVKQAPGKGLKWMGWINTYTEEPTYGDDFKGRFAFSLETSASTANLQINNLKSEDTATYFCARFGSAVFYWGQGTSVTVSS
VL: DIVMTQAAFSNPVTLGTSGSISCRSSKSLLHSNGITYLYWYLQKPGQSPQLLIYQMSNLASGVPDRFSSSGSGTDFTLRISRVEAEDVGVYYCAQNLELPRTFGGGTKLEMKR
In the case of B1, the binding result was “no binding”.

B2: ING-1 heavy chain G33Q (Fab, V domains shown)
VH: QIQLVQSGPELKKPGETVKISCKASGYTFTKYQMNWVKQAPGKGLKWMGWINTYTEEPTYGDDFKGRFAFSLETSASTANLQINNLKSEDTATYFCARFGSAVDYWGQGTSVTVSS
VL: DIVMTQAAFSNPVTLGTSGSISCRSSKSLLHSNGITYLYWYLQKPGQSPQLLIYQMSNLASGVPDRFSSSGSGTDFTLRISRVEAEDVGVYYCAQNLELPRTFGGGTKLEMKR
As to B2, the “fold difference in affinity vs original” value came to 0.06 fold.

B3: ING-1 heavy chain G100D (Fab, V domains shown)
VH: QIQLVQSGPELKKPGETVKISCKASGYTFTKYGMNWVKQAPGKGLKWMGWINTYTEEPTYGDDFKGRFAFSLETSASTANLQINNLKSEDTATYFCARFDSAVDYWGQGTSVTVSS
VL: DIVMTQAAFSNPVTLGTSGSISCRSSKSLLHSNGITYLYWYLQKPGQSPQLLIYQMSNLASGVPDRFSSSGSGTDFTLRISRVEAEDVGVYYCAQNLELPRTFGGGTKLEMKR
For the molecule B3, the binding result is “no binding”.

B4: ING-1 heavy chain G33H (Fab, V domains shown)
VH: QIQLVQSGPELKKPGETVKISCKASGYTFTKYHMNWVKQAPGKGLKWMGWINTYTEEPTYGDDFKGRFAFSLETSASTANLQINNLKSEDTATYFCARFGSAVDYWGQGTSVTVSS
VL: DIVMTQAAFSNPVTLGTSGSISCRSSKSLLHSNGITYLYWYLQKPGQSPQLLIYQMSNLASGVPDRFSSSGSGTDFTLRISRVEAEDVGVYYCAQNLELPRTFGGGTKLEMKR
As for B4, the “fold difference in affinity vs original” value was 0.02 fold.

B5: ING-1 heavy chain E57Q (Fab, V domains shown)
VH: QIQLVQSGPELKKPGETVKISCKASGYTFTKYGMNWVKQAPGKGLKWMGWINTYTEQPTYGDDFKGRFAFSLETSASTANLQINNLKSEDTATYFCARFGSAVDYWGQGTSVTVSS
VL: DIVMTQAAFSNPVTLGTSGSISCRSSKSLLHSNGITYLYWYLQKPGQSPQLLIYQMSNLASGVPDRFSSSGSGTDFTLRISRVEAEDVGVYYCAQNLELPRTFGGGTKLEMKR
In the case of B5, the binding result is listed as “no binding”.

B6: ING-1 heavy chain G33N (Fab, V domains shown)
VH: QIQLVQSGPELKKPGETVKISCKASGYTFTKYNMNWVKQAPGKGLKWMGWINTYTEEPTYGDDFKGRFAFSLETSASTANLQINNLKSEDTATYFCARFGSAVDYWGQGTSVTVSS
VL: DIVMTQAAFSNPVTLGTSGSISCRSSKSLLHSNGITYLYWYLQKPGQSPQLLIYQMSNLASGVPDRFSSSGSGTDFTLRISRVEAEDVGVYYCAQNLELPRTFGGGTKLEMKR
In the case of B6, the binding result was “no binding”.

B7: ING-1 heavy chain G100F (Fab, V domains shown)
VH: QIQLVQSGPELKKPGETVKISCKASGYTFTKYGMNWVKQAPGKGLKWMGWINTYTEEPTYGDDFKGRFAFSLETSASTANLQINNLKSEDTATYFCARFFSAVDYWGQGTSVTVSS
VL: DIVMTQAAFSNPVTLGTSGSISCRSSKSLLHSNGITYLYWYLQKPGQSPQLLIYQMSNLASGVPDRFSSSGSGTDFTLRISRVEAEDVGVYYCAQNLELPRTFGGGTKLEMKR
Turning to B7, the binding result is listed as “no binding”.

B8: ING-1 heavy chain G33K (Fab, V domains shown)
VH: QIQLVQSGPELKKPGETVKISCKASGYTFTKYKMNWVKQAPGKGLKWMGWINTYTEEPTYGDDFKGRFAFSLETSASTANLQINNLKSEDTATYFCARFGSAVDYWGQGTSVTVSS
VL: DIVMTQAAFSNPVTLGTSGSISCRSSKSLLHSNGITYLYWYLQKPGQSPQLLIYQMSNLASGVPDRFSSSGSGTDFTLRISRVEAEDVGVYYCAQNLELPRTFGGGTKLEMKR
For B8, the binding result is “no binding”.

B9: ING-1 heavy chain G33W (Fab, V domains shown)
VH: QIQLVQSGPELKKPGETVKISCKASGYTFTKYWMNWVKQAPGKGLKWMGWINTYTEEPTYGDDFKGRFAFSLETSASTANLQINNLKSEDTATYFCARFGSAVDYWGQGTSVTVSS
VL: DIVMTQAAFSNPVTLGTSGSISCRSSKSLLHSNGITYLYWYLQKPGQSPQLLIYQMSNLASGVPDRFSSSGSGTDFTLRISRVEAEDVGVYYCAQNLELPRTFGGGTKLEMKR
In the case of B9, the binding result is recorded as “no binding”.

B10: ING-1 heavy chain D104R (Fab, V domains shown)
VH: QIQLVQSGPELKKPGETVKISCKASGYTFTKYGMNWVKQAPGKGLKWMGWINTYTEEPTYGDDFKGRFAFSLETSASTANLQINNLKSEDTATYFCARFGSAVRYWGQGTSVTVSS
VL: DIVMTQAAFSNPVTLGTSGSISCRSSKSLLHSNGITYLYWYLQKPGQSPQLLIYQMSNLASGVPDRFSSSGSGTDFTLRISRVEAEDVGVYYCAQNLELPRTFGGGTKLEMKR
B10: the binding result is “no binding”.

B11: ING-1 heavy chain D104W (Fab, V domains shown)
VH: QIQLVQSGPELKKPGETVKISCKASGYTFTKYGMNWVKQAPGKGLKWMGWINTYTEEPTYGDDFKGRFAFSLETSASTANLQINNLKSEDTATYFCARFGSAVWYWGQGTSVTVSS
VL: DIVMTQAAFSNPVTLGTSGSISCRSSKSLLHSNGITYLYWYLQKPGQSPQLLIYQMSNLASGVPDRFSSSGSGTDFTLRISRVEAEDVGVYYCAQNLELPRTFGGGTKLEMKR
B11: the binding result is on record as “no binding”.

B12: ING-1 heavy chain G33R (Fab, V domains shown)
VH: QIQLVQSGPELKKPGETVKISCKASGYTFTKYRMNWVKQAPGKGLKWMGWINTYTEEPTYGDDFKGRFAFSLETSASTANLQINNLKSEDTATYFCARFGSAVDYWGQGTSVTVSS
VL: DIVMTQAAFSNPVTLGTSGSISCRSSKSLLHSNGITYLYWYLQKPGQSPQLLIYQMSNLASGVPDRFSSSGSGTDFTLRISRVEAEDVGVYYCAQNLELPRTFGGGTKLEMKR
Consider B12, for which the “fold difference in affinity vs original” value worked out at 0.03 fold.

B13: ING-1 heavy chain D104H (Fab, V domains shown)
VH: QIQLVQSGPELKKPGETVKISCKASGYTFTKYGMNWVKQAPGKGLKWMGWINTYTEEPTYGDDFKGRFAFSLETSASTANLQINNLKSEDTATYFCARFGSAVHYWGQGTSVTVSS
VL: DIVMTQAAFSNPVTLGTSGSISCRSSKSLLHSNGITYLYWYLQKPGQSPQLLIYQMSNLASGVPDRFSSSGSGTDFTLRISRVEAEDVGVYYCAQNLELPRTFGGGTKLEMKR
Consider B13, for which the binding result is “no binding”.

B14: ING-1 heavy chain D104Q (Fab, V domains shown)
VH: QIQLVQSGPELKKPGETVKISCKASGYTFTKYGMNWVKQAPGKGLKWMGWINTYTEEPTYGDDFKGRFAFSLETSASTANLQINNLKSEDTATYFCARFGSAVQYWGQGTSVTVSS
VL: DIVMTQAAFSNPVTLGTSGSISCRSSKSLLHSNGITYLYWYLQKPGQSPQLLIYQMSNLASGVPDRFSSSGSGTDFTLRISRVEAEDVGVYYCAQNLELPRTFGGGTKLEMKR
With B14, the binding result was “no binding”.

B15: ING-1 heavy chain G100E (Fab, V domains shown)
VH: QIQLVQSGPELKKPGETVKISCKASGYTFTKYGMNWVKQAPGKGLKWMGWINTYTEEPTYGDDFKGRFAFSLETSASTANLQINNLKSEDTATYFCARFESAVDYWGQGTSVTVSS
VL: DIVMTQAAFSNPVTLGTSGSISCRSSKSLLHSNGITYLYWYLQKPGQSPQLLIYQMSNLASGVPDRFSSSGSGTDFTLRISRVEAEDVGVYYCAQNLELPRTFGGGTKLEMKR
In the case of B15, the binding result is given as “no binding”.

B16: ING-1 heavy chain D104Y (Fab, V domains shown)
VH: QIQLVQSGPELKKPGETVKISCKASGYTFTKYGMNWVKQAPGKGLKWMGWINTYTEEPTYGDDFKGRFAFSLETSASTANLQINNLKSEDTATYFCARFGSAVYYWGQGTSVTVSS
VL: DIVMTQAAFSNPVTLGTSGSISCRSSKSLLHSNGITYLYWYLQKPGQSPQLLIYQMSNLASGVPDRFSSSGSGTDFTLRISRVEAEDVGVYYCAQNLELPRTFGGGTKLEMKR
In the case of B16, the binding result is recorded as “no binding”.

B17: ING-1 heavy chain D104K (Fab, V domains shown)
VH: QIQLVQSGPELKKPGETVKISCKASGYTFTKYGMNWVKQAPGKGLKWMGWINTYTEEPTYGDDFKGRFAFSLETSASTANLQINNLKSEDTATYFCARFGSAVKYWGQGTSVTVSS
VL: DIVMTQAAFSNPVTLGTSGSISCRSSKSLLHSNGITYLYWYLQKPGQSPQLLIYQMSNLASGVPDRFSSSGSGTDFTLRISRVEAEDVGVYYCAQNLELPRTFGGGTKLEMKR
Regarding B17, the binding result was “no binding”.

B18: ING-1 heavy chain G33E (Fab, V domains shown)
VH: QIQLVQSGPELKKPGETVKISCKASGYTFTKYEMNWVKQAPGKGLKWMGWINTYTEEPTYGDDFKGRFAFSLETSASTANLQINNLKSEDTATYFCARFGSAVDYWGQGTSVTVSS
VL: DIVMTQAAFSNPVTLGTSGSISCRSSKSLLHSNGITYLYWYLQKPGQSPQLLIYQMSNLASGVPDRFSSSGSGTDFTLRISRVEAEDVGVYYCAQNLELPRTFGGGTKLEMKR
Regarding B18, the binding result was “no binding”.

B19: ING-1 heavy chain G100H (Fab, V domains shown)
VH: QIQLVQSGPELKKPGETVKISCKASGYTFTKYGMNWVKQAPGKGLKWMGWINTYTEEPTYGDDFKGRFAFSLETSASTANLQINNLKSEDTATYFCARFHSAVDYWGQGTSVTVSS
VL: DIVMTQAAFSNPVTLGTSGSISCRSSKSLLHSNGITYLYWYLQKPGQSPQLLIYQMSNLASGVPDRFSSSGSGTDFTLRISRVEAEDVGVYYCAQNLELPRTFGGGTKLEMKR
Take B19: the binding result is listed as “no binding”.

B20: ING-1 heavy chain G33D (Fab, V domains shown)
VH: QIQLVQSGPELKKPGETVKISCKASGYTFTKYDMNWVKQAPGKGLKWMGWINTYTEEPTYGDDFKGRFAFSLETSASTANLQINNLKSEDTATYFCARFGSAVDYWGQGTSVTVSS
VL: DIVMTQAAFSNPVTLGTSGSISCRSSKSLLHSNGITYLYWYLQKPGQSPQLLIYQMSNLASGVPDRFSSSGSGTDFTLRISRVEAEDVGVYYCAQNLELPRTFGGGTKLEMKR
Regarding B20, the binding result is given as “no binding”.
